Test results taken from the supplement of paper PMC9233669.
This sample holds only a part of the variants without activity.

Legend:
biotinyl-Phe-oxazolone = experiment: self-aminoacylation, catalytic enhancement (BFO) (fold over background); higher = more active; k-Seq, kA / k0A0; sequences stand for … in GGGAAUGGAUCCACAUCUACGAAUUC…UUCACUGCAGACUUGACGAAGCUG
Outline: (§1)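 Each biotinyl-aminoacyl-oxazolone, at 2–1250 μM, was incubated with mutagenized RNA pools (0.43 μM) carrying a 21-nt variable region. The 50 μL reactions contained HEPES/NaCl/KCl/MgCl2/CaCl2 buffer with 5% acetonitrile at pH 6.9–7.0 and ran for 90 minutes at room temperature. After streptavidin capture, RNA was measured by qPCR in triplicate and by Illumina sequencing, and catalytic enhancement was calculated as median kA over the uncatalyzed rate from a pseudo-first-order fit of per-sequence fraction reacted.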

biotinyl-Trp-oxazolone = experiment: self-aminoacylation, catalytic enhancement (BWO) (fold over background); higher = more active; k-Seq, kA / k0A0; sequences stand for … in GGGAAUGGAUCCACAUCUACGAAUUC…UUCACUGCAGACUUGACGAAGCUG
Outline: as §1

biotinyl-Leu-oxazolone = experiment: self-aminoacylation, catalytic enhancement (BLO) (fold over background); higher = more active; k-Seq, kA / k0A0; sequences stand for … in GGGAAUGGAUCCACAUCUACGAAUUC…UUCACUGCAGACUUGACGAAGCUG
Outline: as §1

biotinyl-Met-oxazolone = experiment: self-aminoacylation, catalytic enhancement (BMO) (fold over background); higher = more active; k-Seq, kA / k0A0; sequences stand for … in GGGAAUGGAUCCACAUCUACGAAUUC…UUCACUGCAGACUUGACGAAGCUG
Outline: as §1

| Sequence | self-aminoacylation (biotinyl-Phe-oxazolone) | self-aminoacylation (biotinyl-Trp-oxazolone) | self-aminoacylation (biotinyl-Leu-oxazolone) | self-aminoacylation (biotinyl-Met-oxazolone) |
| --- | --- | --- | --- | --- |
| AUUCACCCAGGUCAUAGGGUG [Fam2.2 aminoacylation ribozyme variant] | 7.85 | 2.08 | 2.46 | – |
| CGCCACUUCAAGCAAUCGGUC [Fam1B.1 aminoacylation ribozyme variant] | 37.1 | 24.2 | 2.26 | – |
| AUUCACCCAGGUCGUCGGGUG [Fam2.2 aminoacylation ribozyme variant] | 9.93 | – | 2.84 | – |
| CCAUACUUCAAGCAAUCGGCC [Fam1B.1 aminoacylation ribozyme variant] | 2.88 | 3.74 | 2.33 | 2.36 |
| AUUACCUUCGUCAUCGAGUGA [Fam2.1 aminoacylation ribozyme variant] | 2.48 | 2.15 | 2.18 | 2.22 |
| AUACUUCAAACAAUCGGCCUG [Fam1A.1 aminoacylation ribozyme variant] | 20.7 | 15.5 | 2.02 | – |
| AAGUUUGCGAAUAGUCGCAAU [Fam3.1 aminoacylation ribozyme variant] | 6.18 | – | – | 2.13 |
| AUUCACCUAGGUCAUCGGCAG [Fam2.2 aminoacylation ribozyme variant] | – | – | 2.03 | – |
| AUUACCAUGCUCAUCGAGUGA [Fam2.1 aminoacylation ribozyme variant] | 2.98 | 2.15 | 2.12 | 2.63 |
| CUACGUCAAACAAUCGCUCUG [Fam1A.1 aminoacylation ribozyme variant] | 3.08 | – | 2.07 | – |
| GUUCACCUAGGUCAUAGGGUG [Fam2.2 aminoacylation ribozyme variant] | 2.11 | 2.22 | 2.08 | – |
| AGGUUUGCUAAAAGUCGCAAG [Fam3.1 aminoacylation ribozyme variant] | 10.5 | 4.38 | – | 2.13 |
| CUACCUCAAACAAUCGGGCUG [Fam1A.1 aminoacylation ribozyme variant] | 2.01 | – | 2.4 | 2.02 |
| CCACACUUCAAGCAAUCGGCU [Fam1B.1 aminoacylation ribozyme variant] | – | 2.2 | 2.08 | – |
| AUUCACCUACGUCAUCUGGUG [Fam2.2 aminoacylation ribozyme variant] | 6.74 | – | 2.24 | 2.09 |
| CCCCUCUUCAAGCAAUCGGUC [Fam1B.1 aminoacylation ribozyme variant] | 49.1 | 31.2 | 2.09 | – |
| AAGUUCGCGAAUAGUCGCAAG [Fam3.1 aminoacylation ribozyme variant] | 5.66 | 3.3 | – | 2.31 |
| AAGCUUGCUAAUAGUCGCAAA [Fam3.1 aminoacylation ribozyme variant] | 2.75 | 2.2 | – | 2.21 |
| AUUGACCUAGCUCAUCGGGUG [Fam2.2 aminoacylation ribozyme variant] | 11 | 2.71 | – | 2.14 |

| Sequence | self-aminoacylation (biotinyl-Phe-oxazolone) | self-aminoacylation (biotinyl-Trp-oxazolone) | self-aminoacylation (biotinyl-Leu-oxazolone) | self-aminoacylation (biotinyl-Met-oxazolone) |
| --- | --- | --- | --- | --- |
| AUUAACCUAGGACAUCGGGUG [Fam2.2 aminoacylation ribozyme variant] | 14.2 | 2.82 | 3.2 | – |
| ACGUUUGCUAAAAGUCGCAAG [Fam3.1 aminoacylation ribozyme variant] | 3.93 | 3.43 | – | 2.09 |
| CCUCACUUCAAGCAAUCGGGC [Fam1B.1 aminoacylation ribozyme variant] | – | 3.32 | 2.32 | – |
| CCCCACUUCAAGCAAUCGGUA [Fam1B.1 aminoacylation ribozyme variant] | 11.8 | 3.44 | 2.71 | – |
| CCAUGCUUCAAGCAAUCGGUC [Fam1B.1 aminoacylation ribozyme variant] | 76.2 | 39 | 2.66 | – |
| CCUCGCUUCAAGCAAUCGGUC [Fam1B.1 aminoacylation ribozyme variant] | 81.2 | 36 | 2.24 | – |
| AAGUUUGCUAAUAGUCUCAAG [Fam3.1 aminoacylation ribozyme variant] | 15.4 | 4.26 | – | – |
| AAGUGUGCUAACAGUCGCAAG [Fam3.1 aminoacylation ribozyme variant] | 12.8 | 4.85 | – | – |
| AAGUUUGCUAAUAGUCCCAAG [Fam3.1 aminoacylation ribozyme variant] | 5.64 | 2.12 | – | – |
| UUACUUCAAACAAUCGGUCAG [Fam1A.1 aminoacylation ribozyme variant] | 8.02 | 5.17 | – | – |
| AAGGAUGCUAAUAGUCGCAAG [Fam3.1 aminoacylation ribozyme variant] | 13.7 | 5.63 | – | – |
| AAGUGUGCUAAAAGUCGCAAG [Fam3.1 aminoacylation ribozyme variant] | 10.1 | 4.61 | – | – |
| CUACUUCAAUCAAUCGGCCUG [Fam1A.1 aminoacylation ribozyme variant] | 34.9 | 30.3 | 2.56 | – |
| CCACACUUCAAGCAAUCGCUU [Fam1B.1 aminoacylation ribozyme variant] | – | – | 2.09 | 2.06 |
| CGAAUUCAAACAAUCGGUCUG [Fam1A.1 aminoacylation ribozyme variant] | 4.97 | 3.38 | – | – |
| CCACGCUUCAAGUAAUCGGUC [Fam1B.1 aminoacylation ribozyme variant] | 18.1 | 12.9 | – | – |
| CCACGCUUCAAACAAUCGGUC [Fam1B.1 aminoacylation ribozyme variant] | 92.8 | 45.3 | 2.17 | – |
| CUUCUUCAAACAAUCAGUCUG [Fam1A.1 aminoacylation ribozyme variant] | 12.3 | 5.05 | – | – |
| CUUCUUCAAACAAUCGGUUUG [Fam1A.1 aminoacylation ribozyme variant] | 20.7 | 13.8 | – | – |

| Sequence | self-aminoacylation (biotinyl-Phe-oxazolone) | self-aminoacylation (biotinyl-Trp-oxazolone) | self-aminoacylation (biotinyl-Leu-oxazolone) | self-aminoacylation (biotinyl-Met-oxazolone) |
| --- | --- | --- | --- | --- |
| AUUUCCCUGGUCAUCGAGCGA [Fam2.1 aminoacylation ribozyme variant] | – | 2.59 | 2.18 | 2.25 |
| CAACUUCAAACAAUCAGUCUG [Fam1A.1 aminoacylation ribozyme variant] | 29.7 | 11.2 | – | – |
| AUUCGCCUAGGUCAUAGGGUG [Fam2.2 aminoacylation ribozyme variant] | 7.92 | – | 2.47 | 2.16 |
| AAUUUUGCUGAUAGUCGCAAG [Fam3.1 aminoacylation ribozyme variant] | 2.05 | 2.31 | – | – |
| CUCCUUCAAACAAUCGGUCUA [Fam1A.1 aminoacylation ribozyme variant] | 18.5 | 9.25 | – | – |
| CCACACUUCAAGCCAUCGCUC [Fam1B.1 aminoacylation ribozyme variant] | – | 2.72 | 2.19 | – |
| GCACACUCCAAGCAAUCGGUC [Fam1B.1 aminoacylation ribozyme variant] | 2.35 | 2.53 | – | – |
| AAGUUUGCGAAUAGUCGCGAG [Fam3.1 aminoacylation ribozyme variant] | 8.44 | 2.14 | – | – |
| AUACACCUAGGUCAUCGGCUG [Fam2.2 aminoacylation ribozyme variant] | 4 | – | 2.03 | 2.13 |
| AAAUUUGCUAAUUGUCGCAAG [Fam3.1 aminoacylation ribozyme variant] | – | – | – | 2.03 |
| AAGUUUGCAAAUAGUCGCGAG [Fam3.1 aminoacylation ribozyme variant] | 2.69 | 3.06 | – | – |
| CCACAGUUCAAACAAUCGGUC [Fam1B.1 aminoacylation ribozyme variant] | 18.2 | 12 | – | – |
| CUCCUUCAAUCAAUCGGUCUG [Fam1A.1 aminoacylation ribozyme variant] | 24.6 | 18.4 | – | – |
| CCACACUUCAAUCAAUCAGUC [Fam1B.1 aminoacylation ribozyme variant] | 22.8 | 7.45 | – | – |
| AAAGUUGCUAAUAGUCGCAAG [Fam3.1 aminoacylation ribozyme variant] | 3.77 | – | – | 2.06 |
| AAGUGUGCUCAUAGUCGCAAG [Fam3.1 aminoacylation ribozyme variant] | 4.43 | 2.34 | – | – |
| CUGCUUCAAAUAAUCGGUCUG [Fam1A.1 aminoacylation ribozyme variant] | 23.7 | 17.4 | – | – |
| CUACUUCAAAUAAUCGGUCUG [Fam1A.1 aminoacylation ribozyme variant] | 18.3 | 10.5 | – | – |
